Columns and labels:
human GUCY2C = target: T1, human GUCY2C (Homo sapiens, UniProt P25092); test: Ser40 phosphorylation of Th in HEK cells co-transfected with Th and GUCY2C (western blotting, ratio P-Ser40/Total Th); type: cell-based; conditions: guanylin 10 μM, 1 hour; for P-Ser40 levels (Fold Change = ratio P-Ser40/Total Th): HEK cells co-transfected with Th and GUCY2C, uroguanylin 1 μM, p<0.01
T1 construct: expressed in transfected cells; host or cells: HEK cells
Description: FIG. 4. GUCY2C activation increases Ser40 phosphorylation. Immunocytochemistry images (A) and western blotting analysis (B) of HEK cultures transfected with Th or Th+GUCY2C. (C) Co-transfected HEK cells were treated with guanylin (G) or uroguanylin (UroG) and changes in Ser40 phosphorylation were studied. The graph represents the statistical analysis (n=3 for Control, n=6 for Guanylin, n=9 for Uroguanylin; Mean±SEM). Unpaired Student's t-test (p-value: **<0.01).
(§1) FIG. 5. The increase in Ser40 phosphorylation is proportional to the produced amount of cGMP upon GUCY2C stimulation. (A) HEK cultures were treated with guanylin, in the presence or absence of IBMX. […] Unpaired Student's t-test (p-values: ****<0.0001, **<0.01, *<0.05). (B) HEK cells were co-transfected with Th and either the wt GUCY2C or a gain-of-function mutant (R792S). Ser40 phosphorylation was studied following guanylin treatment (G). […] Unpaired Student's t-test (p-values: ***<0.001, **<0.01).
(§2) HEK cells were maintained in 100-mm Petri dishes and grown in DMEM medium supplemented with L-glutamine, penicillin-streptomycin (Pen&Strep) and 10% heat-inactivated fetal bovine serum (HIFBS). Growing conditions were 37° C. and 5% CO2. For every-other-day passages, HEK cultures were split at a 1:3 dilution. From Friday to Monday, the split proportion was doubled for all cell lines. For passaging, cultures were rinsed with PBS and incubated with 1 mL of trypsin during 5 minutes. Cells were resuspended in growth medium and finally split to the proper dilution. The experiments were performed in 12-well plates. For immunocytochemistry analysis, sterile 18-mm coverslips were added prior to the plating. 500 μL of cell resuspension was seeded in each well. If experiments were to be performed 48 hours after the plate preparation, 1:5 was the seeding ratio for HEK cells. When the experiments took place 96 hours post-plating, 1:7 was the working dilution for HEK cells. Unless otherwise stated, HEK cultures were processed 96 hours post-plating.
HEK cells were transfected using the calcium-phosphate method. […]

[1] = system: Th Ser40 phosphorylation (cGMP-derived signaling) in HEK cells; test: Ser40 phosphorylation of Th in HEK cells transfected with Th (western blotting, ratio P-Ser40/Total Th); type: cell-based, mouse Th in HEK cells; conditions: 500 μM, 1 hour, 48 hours post-plating, n=6, p<0.0001
Description: FIG. 3. HEK cells are a suitable model to study GUCY2C-induced Ser40 phosphorylation. (A) RT-qPCR data from intact HEK extracts. Input material was 10 ng of total RNA. Cp corresponds to the cycle number in which the expression starts to be considered positive. (-) represents the water control, which is negative in every case. (B) HEK cultures were transfected with Th and treated with a cGMP analogue 48 hours post-plating. Changes in Ser40 phosphorylation were studied. The graph represents the statistical analysis (n=6; Mean±SEM). Unpaired Student's t-test (p-value: ****<0.0001). Hereon, ‘Fold Change’ corresponds to the ratio P-Ser40/Total Th.
as §2, with “If experiments were to be performed 48 hours after the plate preparation, 1:5 was the seeding ratio for HEK cells. When the experiments took place 96 hours post-plating, 1:7 was the working dilution for HEK cells. Unless otherwise stated, HEK cultures were processed 96 hours post-plating.” left out

GUCY2C R792S mutant = target: T2, GUCY2C R792S mutant (Homo sapiens, UniProt P25092, R792S); test: Ser40 phosphorylation in HEK cells co-transfected with Th and GUCY2C gain-of-function mutant R792S versus wt; type: cell-based; conditions: HEK cells co-transfected with Th and wt or R792S GUCY2C; FIG. 5B
T2 construct: expressed in transfected cells; host or cells: HEK cells
Description: as §1
HEK cells were transfected using the calcium-phosphate method. 12-well plates were refreshed with 500 μL of growth medium before transfection. […] The plasmid mixture was taken into a final concentration of 250 mM CaCl2 in a total volume of 110 μL. A complementary tube was filled with 110 μL of HEPES-buffered saline 2× (HEBS 2×: 1.5 mM Na2HPO4, 50 mM HEPES pH 7.05, 280 mM NaCl). […]
Up to 35 μL of sample was loaded in each slot and run in the presence of tris-glycine buffer and 0.1% SDS. […] After additional washings during 1 hour, blots were exposed to an enhanced chemiluminescence solution and the signal was detected using an Odyssey imager (LI-COR). […] For graph quantifications, ‘Fold Change’ represents the ratio P-Ser40/Total Th. Statistical comparisons between pair of groups correspond to unpaired Student's t-tests, as calculated with GraphPad Prism. […]

[2] = injected into the blood stream; cited from earlier work

T1 sequence (P25092 24-1073): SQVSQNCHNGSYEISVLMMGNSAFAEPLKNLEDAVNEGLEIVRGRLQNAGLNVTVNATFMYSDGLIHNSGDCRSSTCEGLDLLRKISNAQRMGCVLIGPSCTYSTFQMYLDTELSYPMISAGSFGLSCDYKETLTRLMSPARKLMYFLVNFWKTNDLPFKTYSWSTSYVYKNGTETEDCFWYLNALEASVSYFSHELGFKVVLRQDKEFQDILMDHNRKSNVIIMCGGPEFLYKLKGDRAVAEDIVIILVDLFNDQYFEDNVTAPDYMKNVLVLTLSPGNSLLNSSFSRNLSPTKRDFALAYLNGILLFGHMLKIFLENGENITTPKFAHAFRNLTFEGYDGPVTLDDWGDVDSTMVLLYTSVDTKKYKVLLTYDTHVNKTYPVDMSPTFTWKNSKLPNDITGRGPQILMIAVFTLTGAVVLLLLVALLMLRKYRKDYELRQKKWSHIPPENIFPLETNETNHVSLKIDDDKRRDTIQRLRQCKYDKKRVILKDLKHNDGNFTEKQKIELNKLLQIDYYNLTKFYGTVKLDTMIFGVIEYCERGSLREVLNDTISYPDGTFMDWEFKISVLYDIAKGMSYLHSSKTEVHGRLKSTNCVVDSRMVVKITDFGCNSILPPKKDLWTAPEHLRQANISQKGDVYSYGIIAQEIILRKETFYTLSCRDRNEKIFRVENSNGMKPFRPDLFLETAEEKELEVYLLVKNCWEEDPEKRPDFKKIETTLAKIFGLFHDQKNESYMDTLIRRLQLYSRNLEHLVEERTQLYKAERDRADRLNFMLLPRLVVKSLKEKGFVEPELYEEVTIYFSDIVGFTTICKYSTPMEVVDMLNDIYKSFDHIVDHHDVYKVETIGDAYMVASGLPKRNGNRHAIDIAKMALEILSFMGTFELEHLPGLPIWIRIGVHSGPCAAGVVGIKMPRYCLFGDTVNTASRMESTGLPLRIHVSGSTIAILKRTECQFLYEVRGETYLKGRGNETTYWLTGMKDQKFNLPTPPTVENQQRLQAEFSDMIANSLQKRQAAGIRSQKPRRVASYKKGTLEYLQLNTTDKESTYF
T2 sequence (P25092 24-1073 R792S): as the sequence (P25092 24-1073) above, with R769S counted along it

With CC(C)Cn1c(=O)n(C)c(=O)c2[nH]cnc21 [IBMX, 3-isobutyl-1-methylxanthine] the “Ser40 phosphorylation with PDE inhibition” value (human GUCY2C; HEK cultures, IBMX 100 μM, FIG. 5A) was “potentiated the increase in Ser40 phosphorylation as compared to guanylin administration”.
For Nc1nc2c(nc(Br)n2[C@@H]2O[C@@H]3COP(=O)(O)O[C@H]3[C@H]2O)c(=O)[nH]1 [8-Bromo-cGMP], the “P-Ser40 levels (Fold Change = ratio P-Ser40/Total Th)” value [1] was “small but significant increase in P-Ser40 levels”.
For “guanylin: natural agonistic ligand of GUCY2C; a 15 amino acid polypeptide (PGTCEICAYAACTGC)”, the “P-Ser40 levels (Fold Change = ratio P-Ser40/Total Th)” value (human GUCY2C) is given as “increase P-Ser40 levels”, the “boost in Ser40 phosphorylation upon guanylin treatment, R792S mutant compared to wt receptor” value (GUCY2C R792S mutant) is given as 1.5 fold and the “passage of the blood-brain barrier” value [2] is given as “rapidly enters the brain”.
With “uroguanylin: natural agonistic ligand of GUCY2C; a 16 amino acid peptide (NDDCELCVNVACTGCL)” the “P-Ser40 levels (Fold Change = ratio P-Ser40/Total Th)” value (human GUCY2C) was “increase P-Ser40 levels”.
